Consider six molecules from publication PMC2898215.

In this data set the target is streptavidin (UniProt P22629 25-183). Description: capillary electrophoresis.
Chain of streptavidin (P22629 25-183): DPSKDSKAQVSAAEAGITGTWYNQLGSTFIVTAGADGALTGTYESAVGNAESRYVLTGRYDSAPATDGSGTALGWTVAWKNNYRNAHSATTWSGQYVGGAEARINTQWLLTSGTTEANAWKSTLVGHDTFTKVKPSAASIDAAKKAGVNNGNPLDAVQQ
The molecule CATATTTAGCGCGTGTGTCGCAACACCTATATATG (structured_DNA) [S10-104 minimal] came in with a binding signal of 53 % bound.
CAAACCTCGCGCCGATTGCAGGCAGGTTTG (structured_DNA) [S10-113 minimal] displayed a binding signal of 50 % bound.
TAGGACAAACGCACACGGCGCAGTGTTTTGACCTA (structured_DNA) [S10-103 minimal]: the binding signal was found to be 48 % bound.
With CTTGTGTTTGCTCCCCGACGCAGGGGACACAAG (structured_DNA) [S10-115 minimal], the binding signal is 60 % bound.
With CACGTAACGCATACGCCGCAGTATTTATGTG (structured_DNA) [S10-101 minimal], the binding signal is > 70 % bound.
The molecule CTGTGAGACGACGCACCGGTCGCAGGTTTTGTCTCACAG (structured_DNA) [NRR] gave a binding signal of 33 % bound.
